Test results reported in article PMC5190064.

Target: integrin αvβ3 expressed on primary human brain endothelial cells (ECs) (human (endogenous in primary brain ECs)) (UniProt P06756)
Chain of UniProt P06756 (P06756 31-1048, chain 1 of 2): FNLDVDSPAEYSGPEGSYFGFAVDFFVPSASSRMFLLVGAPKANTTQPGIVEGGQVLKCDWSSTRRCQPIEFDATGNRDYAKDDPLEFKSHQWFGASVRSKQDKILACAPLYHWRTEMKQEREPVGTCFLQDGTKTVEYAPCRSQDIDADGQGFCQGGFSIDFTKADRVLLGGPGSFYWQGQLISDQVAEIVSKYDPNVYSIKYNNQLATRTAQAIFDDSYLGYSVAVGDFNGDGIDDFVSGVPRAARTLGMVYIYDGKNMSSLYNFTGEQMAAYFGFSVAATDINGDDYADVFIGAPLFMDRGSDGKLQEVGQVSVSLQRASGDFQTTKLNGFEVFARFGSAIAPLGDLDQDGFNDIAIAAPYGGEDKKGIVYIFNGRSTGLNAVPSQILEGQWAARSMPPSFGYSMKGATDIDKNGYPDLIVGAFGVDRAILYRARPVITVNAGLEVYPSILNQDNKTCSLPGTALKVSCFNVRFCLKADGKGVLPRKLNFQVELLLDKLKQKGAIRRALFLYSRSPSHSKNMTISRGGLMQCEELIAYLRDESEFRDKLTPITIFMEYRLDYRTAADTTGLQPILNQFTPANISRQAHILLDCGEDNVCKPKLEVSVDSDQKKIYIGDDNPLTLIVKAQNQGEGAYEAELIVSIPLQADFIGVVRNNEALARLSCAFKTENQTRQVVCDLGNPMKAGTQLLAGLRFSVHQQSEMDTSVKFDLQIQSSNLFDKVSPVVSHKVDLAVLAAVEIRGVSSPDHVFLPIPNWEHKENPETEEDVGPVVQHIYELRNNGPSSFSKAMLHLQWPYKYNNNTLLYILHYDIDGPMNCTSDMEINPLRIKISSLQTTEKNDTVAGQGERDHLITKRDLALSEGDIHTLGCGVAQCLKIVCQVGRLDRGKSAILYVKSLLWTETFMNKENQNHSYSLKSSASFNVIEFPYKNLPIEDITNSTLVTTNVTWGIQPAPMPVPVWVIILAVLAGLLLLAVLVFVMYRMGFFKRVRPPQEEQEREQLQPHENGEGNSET
Chain of UniProt P06756 (P05106 27-788, chain 2 of 2, further chain): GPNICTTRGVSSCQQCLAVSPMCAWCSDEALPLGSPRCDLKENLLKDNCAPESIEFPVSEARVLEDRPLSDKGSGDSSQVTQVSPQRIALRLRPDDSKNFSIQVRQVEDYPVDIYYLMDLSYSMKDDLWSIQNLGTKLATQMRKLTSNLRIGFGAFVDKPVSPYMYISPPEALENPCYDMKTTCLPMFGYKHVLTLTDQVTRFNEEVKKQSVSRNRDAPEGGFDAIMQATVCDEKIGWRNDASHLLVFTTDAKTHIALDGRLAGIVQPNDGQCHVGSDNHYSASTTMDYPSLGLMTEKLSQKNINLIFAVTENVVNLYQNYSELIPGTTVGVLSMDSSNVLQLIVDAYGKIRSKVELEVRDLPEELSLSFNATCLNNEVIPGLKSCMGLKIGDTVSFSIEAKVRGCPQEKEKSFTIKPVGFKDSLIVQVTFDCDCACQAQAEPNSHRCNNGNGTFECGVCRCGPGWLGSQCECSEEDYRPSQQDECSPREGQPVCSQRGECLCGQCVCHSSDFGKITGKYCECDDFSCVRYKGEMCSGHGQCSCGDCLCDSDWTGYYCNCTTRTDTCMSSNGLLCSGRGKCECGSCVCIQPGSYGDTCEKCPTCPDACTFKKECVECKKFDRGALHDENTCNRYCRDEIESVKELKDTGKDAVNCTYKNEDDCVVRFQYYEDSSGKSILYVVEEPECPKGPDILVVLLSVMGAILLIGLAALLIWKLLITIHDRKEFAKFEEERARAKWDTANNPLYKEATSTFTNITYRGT

cell-cell adhesion of GFP-CSCs (08387) to a confluent EC monolayer after pre-incubation of ECs with a neutralizing antibody to integrin αvβ3; percent reduction of CSC adhesion: 43%
Substance: L1CAM expressed on cancer stem-like cells (CSCs) from glioblastoma (from UniProt P32004 20-1257) (receptor)
